Experimental data reported in the domain aggregation screens of Martell et al. (2025).

Experiment: soluble fraction after stress (log2 fold change); higher = more stays soluble; pooled small domains, quantitative proteomics
Conditions: stress: pH 4
Outline: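 Values are log2 fold changes, and higher ones mean more of the domain stayed soluble. Each fold change reflects the soluble amount of a domain after acid stress and is taken as a measure of aggregation propensity. The stress was pH 4, applied to pooled custom libraries of small protein domains analysed by high-throughput quantitative proteomics.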

| Sequence | soluble fraction (log2) |
| --- | --- |
| HMYRSGGYTGAGKDDEEAGVVHRNEFVNTADAVRNPHVKRFLDVFNVAQKDGTIRMLNTSQILERARLDA | 0.0596 |
| HMPKAPHETLSRREMEVLLLLSEGVTLTRIGDTIHVSVKTVSTYRARILQKLDLQSNAELTRYVLQHKL | ≥ 0.43 |
| HMLARFSGIALNTWTQADVERTFGPPMLVERVARFDGDIWTYRFMDDYEPRMAHIHIDRAGTVRQLVF | -1.74 |
| HMKLVESALSILEEAVDRDFHGNLGDAARYFDIPYQTIYSWLKSRKRVPSLRALEPVLEKLGVSFTT | -0.479 |
| HMVVNERIKKLRRSLDLTQQEFADRIGVKRNTIANYEIGRNEPIDSVLELIVREFGVSKQWLLDGTGEMF | 0.0586 |
| HMQISLDTKLINLEFSVRANNVFRENQIFTLRDLTSHSKEDLMLMTNFGKTTLYEVNKKLEEHQLKLSQ | -1.53 |
| HMTFNEPSPKEIMDYSLSRGYKVDADAFIDFYRGKAKAYGKEGLWLDGRGRLVKDWRAKLRVVWFKDENKL | -1.09 |
| HMSAPEGWMNRGDLRDNFRIQYPVTDRIIASYRESHPEWFGTYLSKTSKSLEYFHPDLVAKVREAAN | -0.145 |
| HMDDINVSNSKNIVPNVTGHTGSKAIPVLENLGLDVQYSGFGKVTNQSIPAGTRFKKGETIYLMLE | -0.0218 |
| HMLEINTIIGNNLKKIRQEKKLTLDELAGITGVSKGMLSQIEKGTTNPTINTIWKISNGLNVPYTYLLEDD | -0.0827 |
| HMTPTNILIVEDEKEIRRFVRTALESEGLRVFESETLQRGLIEAGTRKPDLIILDLGLPDGDGLSYIRDLR | -0.662 |
| HMTAQASDIEKVLQVIETLGFRGHTLPGENRTAIGVTGNRGSIDPAHFENLPGVADAIRVTKPY | -0.292 |
| HMHSQVFTDPDKAKNAVVKLGAPLVVKADGLALGKGVIIAQNPQAAKEAVASVGSSGISSISVT | 0.22 |
| HMNVRAYKVSKESELTVEEKLEAVRGYGVADLLYVIREFEENPGKYEPEVIKLIVQQLTDKGIM | -0.94 |
| HMYPQLIGFKVIDEDKGEVGVVKEVSESMHQILLTVMKGKKEILIPLAEEFITKVNRHKKELFMVLPDG | -0.383 |
| HMPRKYFPFYFTFRETAQTMPPRLRAVFYEAIIEYGTTGKEPTLPKSIAGYWPLVKPTLDSAKAHYDAG | -0.0316 |
| HMNDVHELPYSSFIEMVERGHVISVTVKHINIEFESTKNENYRTIAPQAMTPPYLELLLKNKDSVKVTFLP | -0.516 |
| HMQVVVEKSKEKVIISGNQYYIHIVKKGETAFSIAKAYGITVDELVKNNPSAATVLKEGQALRIPVVE | 0.22 |
| HMGIEIKLLMSFMTDSGRKVSLFVTDPREDVTETEIKQVMDLIIEKNIFAPNGEDIVSAKEAKIVQT | -1.2 |
| HMTVKKEIAKVKPTPLGWLRVRETPSLNGAEITKVNTGESYDVLDKETGWIKIKVSETVEGWVSDAYIELS | 0.124 |
| HMGATFITSSKDNAINIRQAAGTDSKVIETIKNGHILESSEKSGEWYKVTYYDSDIKKTFTGYIHNSQLK | -0.162 |
| HMNNLSEELNVTFPRTRDQLLNILHYVQHKYGYISKVSMQEIGNHIKMPVSEIYGTVTSYSEFKI | -0.965 |
| HMQTGYHVRITASTLNVRRDHSASSAVATQVRRGEVYTIVDEYNNGGTLWGKLKSGAGWIALKYTQS | ≥ 0.43 |
| HMFTFEDMDKFESLLTTGLTDVQRRIYSLVTHDGKEYDLIAETLGISVEAVRMHMSRARKKIRENYKKID | -1.7 |
| HMRQFEPVEGYNPYADKNELHGYEYWGAKFADSRSPEETAWIKQQIDDENEDRRFISEAGLA | -0.446 |

| Sequence | soluble fraction (log2) |
| --- | --- |
| HMENEDMTGDIRVIDYIRNVAEYIQTTKGQASASQMLDRFLFPPELQYTPLDKLSGGEQRRLYLLKVLMEA | -0.575 |
| HMPDITAAVARTLQALRADRGWSLDQLAARSGVSKGVLVALEQGRSNPNLATLARIGDAFGVPVTLLVDL | -0.196 |
| HMPALATKDSVLDGRAEVVSYVRDTSVFYLRVRVPQKQGYRSRRIDGVSTLPEAITKALDTYMDLGT | -1.02 |
| HMELVQIIGNNIRDLMTTRSVTITDLANYLNVSRQTLQNYLRGSNIIDSVKLVAVSDFFDVPVESLLQSK | -0.783 |
| HMVWTAGEVVERIRERVGHPATIRELMQVLTIPPEDRHRFRRRIMQLVEAGELIRIRGNRYGLAD | 0.124 |
| HMSDSLVLTGVAYVDGKPVVTLFDKVKKESLVVTDQPNLKGWTLVEATQSSDIKRATAKVNIGGEPVSIRY | -0.162 |
| HMFQEGLVAPPAYTRPESFRGWEVPEILRSGNFPAIAKWQHEESLRLTRERRPAMLEAYERRT | -0.415 |
| HMNRIEMTEPIIIKDLSRETGIPWVAIQKRLAQDGIMANINTTIEAEKAQLIAVDYGIELAVV | -0.54 |
| HMPAFGALTLRQRDLVELIAQGLDNSQIAARLGLAEKTVRNHITMIFNKLEMENRSQVIVRARESGFGAVR | -0.228 |
| HMISEAEGTILQLLKEADGTLPFTYKSDADEIKKVFGMSKKNFKRTLTELIEAKKIQLLDDAIVL | -0.0222 |
| HMTQSGLTQWEFNMLRQALIEMLGEKPGSVFELARLLPLEQEKNVQALRFLLDHDDQFHLKDEYISFVKRT | -1.82 |
| HMKVFTEDEMLEKIKEYLSTNSYINRRVMETQFGLRQNIALKWLKHFTEIGVLRKEGERNSPIYFLNN | 0.154 |
| HMEVAAAENYRSKLSSFAKDTISVWQTELLLGTISDDDKASLTEWMAYIKALQVVDTSDPESITWPTEPT | -1.12 |
| HMNEYLPEAVQKLLEVMEYDIPYTSNELMERLGLKAKEGFRRNYLHPAMEMKLIQMTIPDKPNSRNQRYLR | -0.248 |
| HMEKEYMKNVVGMEYRQARVLLGDMGLELAFQPVYETSDKYPTDVVVSTEPAADQPLTKGQTVILHIST | 0.299 |
| HMPPFDDILAEYYEPLYRHVRRMVVSHDDAKDVMQEAMLRIFQGLDGLKDPSAVRTWVWRIATNEALRH | -1.76 |
| HMAFDYETYQLTSREFSIIELVADGRSNREIAEALYLGEGTVRNYLSSILEKLELRDRTQLAVFFYQHL | -2.34 |
| HMGQELTMPDLKSMSRSNAEEKLKKMGLKLGAVFEENAKEPAGTVINQDPRSGSKITKGQTVDITVSLGEK | 0.0104 |
| HMSRWHEFLNKSEDGMKELDEQNQKVLTLLILQRFYQTPFQAKEDEEFYREFFERLSSVNEILG | -0.283 |
| HMFTIGENIRDLRLERAITQEQLAEQLNVSAPAVSKWERGEAYPDITLVPKLAEILGVSTDKLFGVD | -0.265 |
| HMGNHRNMSAEEEAAILAPFKARAEAGELVEISEIAKAYQSAVDHPISRGQIYFVLHRHGWRKV | -0.638 |
| HMTELIEDYVELIGDLIRHRGEARAADIANRMAVSQATVSKMIRRLNELGLVTSKPYRSLFLTDEGQKMAE | -0.469 |
| HMINVVDEVIKHLETNIISGFWAPGQKIDSEATLSKQLNVSRASIHTAIQQLIATGVLESFQGKGTFVRS | -0.226 |
| HMKSISMANGNVQLRINGVLASSLEVAALSPEDIKRVEYHDNPGLRYGEGIDIVLDYITIKRT | -1.16 |
| HMDNWYIAFNSFLSQNKLTAKNVSELTGLSKPTIDSYKQGKRKPTDENMQIIKDKLGFNISEILYN | -0.576 |

| Sequence | soluble fraction (log2) |
| --- | --- |
| HMSNLTDLVSAKEAEVYLHFLESGSTAGMTEAELRAVRKIEELIQSNKIDYNGILRIRNETVK | -0.137 |
| HMDIRMLLSDREEEIMILLSKGLSISEAANRMQIGQASAATYLNRARRKLKAETVRQAVAIWTGD | -0.422 |
| HMIGGEDEILKVVLEVLEEKPEAIEQYKNGRTNIVDFLVGQVMKKTRGQANPATTREFMIREIEK | -0.999 |
| HMVSAMLLHKKEILNLLAEEPEALHFASLLRAFGGRHIKNELKQIVDDLVRSGEILRLRGNRYTLPGADN | -0.149 |
| HMSELLIVGSEQDNTRLDRFLADQYEEYTRSFLQKLIDQGNVSINGISVKKSGIKLKENDEIAVTLPEPQ | -0.588 |
| HMSEEGTIPDVSGQDEASAQKALENAGFTNIKSEAVYSEEEQGTVIDTNPTAGTKVSKDTEITMQVSKGSE | 0.108 |
| HMYDASELNKALEEAKKLDLNNYTEESSEALKNAISKAEEALLSKDKETINSALEELNKAMDSL | -0.615 |
| HMHTDDDGITEAFPHLRLLSLGEDILDLLEKSRFIRKLNNELVYYVVDFREQNSIDGRRYHPSIYHNL | -1.31 |
| HMLHNEFINDRIQSAINNLSEHFKIVIILRDIQELSYEEISNIVEVPLGTIKSRINRARIQLQAELLDL | 0.103 |
| HMLLQENRKLHSKLEELQLISRAKAVLIEYLKLTEPQAHRYIEKQAMDLGLTRPQVALNILKTYE | 0.21 |
| HMRGWGTVKRRTPKSGRYRASYIGPDGKRYAADHTYAAKVDADAWLSSERALITAGVWTPPTDRVT | -0.0591 |
| HMNPASVLDGLKITSFSPTRAIVAGPGGSRIVFDNEAVVLGGIEWDVHIQRNGIEFTSQGQTVLLLFDRS | -0.514 |
| HMPVASNRDVNLDIGERVFVQEWAPNRTARVQYRGSPWEARLAPGAPAAAGEHRVSAVEGNWLVLEPA | -0.19 |
| HMNVDALIGTKGIVVQPIRPFAVGQVKVNGQVWSAVGKTPETDIEQGREVKVHAIEGVKLVVTPT | -0.134 |
| HMFETLVLALAQAWPAERGPVEALQFEGGRLSLQRSGFADEQVEALRQRLSSEGWTLQTEQGRLILNKAG | -1.11 |
| HMVSTDPVHLFNLGTANRRAGRASEAITSYRKFMEAAPQHPQVPEARAYIHDMEVLLQERQKSEQAASQLS | -0.0261 |
| HMTEDADIERRLTGILASAGWYRSLAVEVKEGIVYLDGATASGNHRDWAGSLAAKTEGVVAVVNRIEVQP | -0.285 |
| HMAVTEVKTTAVVNMRSSDSEKADKLGKAQIGDTFRVLEQRANGWTKLTDGTQEFFIKSEYLEAIA | 0.0485 |
| HMGQAEEVRYSTFLDEVRNGRIEQVVLQGEHIIGTRKDKTVFSVFNPETDYTALIGTLSKSGVTIEGRP | 0.103 |
| HMAVSDPTAGGIKALMYPNPAQDRLSVALDIPAGLDKQAQMTVTDMMGRVVTQQQVTLNDGFQVFEL | 0.209 |
| HMSVIKERLTEFLTYKGIGQIKFAEAAGLSRGFVNVLGDGISSKSLNKISQAFPELNTLWLTTGEGEML | -0.061 |
| HMTMNYFIIENNQQVGPLTLEQLVARNITSDTLVWKEGMEDWQPAWKVDELHTVLDQIRANAEQ | -1.19 |
| HMAEVRTLLVPIELAGMRFDQVLAELLPEFSRSRLAAWIKSGDALLDGHDAKPKGVVRGGEQIEIRLA | -0.167 |
| HMSSEQRSVLFPNLAETDKVAVIEALMAAGVNARVDSASGRVTVPSGDYYNSRAILAAQGLPTS | -0.175 |
| HMGMVDKSMYSRYDVGDLVKVLRGPLEGSEGHITEINTDTGTVKVETVFFGRSTVVEVDFSEIDK | -1.35 |
